The values below come from patent US20190106494A1 (published 2019).

In the test the target is PD-L1 (soluble; 'PD-L1 ligand' of the Octet assay) (UniProt Q9NZQ7 19-238, limits assumed). Kind of test: BLI (Octet RED 96), antibody on anti-human IgG capture sensor, PD-L1 in solution, 1:1 fit. The procedure: Affinity Measurement: The affinity measurement was conducted with Octet RED 96 (ForteBio) instrument at 30 degree Celsius. Briefly, anti-human IgG capture sensor (AHC from ForteBio cat #18-5060) was equilibrated with assay buffer (1× dilution of 10× Kinetics Buffer (ForteBio, Cat #18-5032). Test antibody samples were diluted to 3 ug/mL and allowed to bind to the sensors for 5 min. The sensors were then washed in assay buffer for 3 minutes, and PD-L1 ligand diluted at different concentrations were allowed to bind to the mAb coated on the sensors for 5 minutes. Afterwards, dissociation was followed for 10 minutes in the assay buffer. The sensors could be regenerated by washing in glycine buffer and assay buffer 3 times. The data were fitted with 1:1 binding model using the ForteBio software.
Background: Biolayer interferometry detects binding as a change in optical thickness at a sensor tip.

Chain of PD-L1 (soluble; 'PD-L1 ligand' of the Octet assay) (Q9NZQ7 19-238 limits assumed): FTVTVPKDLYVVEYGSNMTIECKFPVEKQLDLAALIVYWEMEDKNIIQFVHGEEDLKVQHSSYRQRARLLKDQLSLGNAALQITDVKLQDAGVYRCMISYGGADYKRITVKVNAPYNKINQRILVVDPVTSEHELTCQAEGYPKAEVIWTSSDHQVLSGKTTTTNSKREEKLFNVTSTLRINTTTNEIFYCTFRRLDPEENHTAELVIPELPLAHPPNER

B1: 111F1 chimeric anti-PD-L1 antibody (antibody, V domains shown)
VH: CQSVKESEGGLFKPTDTLTLTCTVSGIDLNSIAISWVRQAPGNGLEWIGTIGSSGSAYYASWAKSRSTITRNTSENTVTLEMTSLTAADTATYFCAKEILYYGMDLWGPGTLVTVSS
VL: DPVMTQTPASVSEPVGGTVTINCQASQSISSYLAWYQQKPGQRPKLLIYAASNVEPGVPSRFRGRGSGTQFTLTISDLECDDAATYYCQSTYGSTGGGDYGNAFGGGTKVVVVR
Usually Kd stands for the equilibrium constant for the complex coming apart. The low end stands for a tighter complex, the high end for a looser complex. By koff is commonly meant the rate constant with which the complex falls apart. A high value points to a short-lived complex. The kon is a measure of how fast the partners come together. Higher therefore signals faster complex formation. Consider B1, for which the Kd is 0.162 nM, the koff came to 6.2e-05 s⁻¹ and the kon came to 769000 M⁻¹ s⁻¹.
